System: peptide library, one residue held at a place counted from the S/T acceptor
Experiment: relative phosphorylation of the sub-library (ratio to the mean residue at this position); higher = residue favoured
Settings: human
Procedure, shortened: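 Spots on streptavidin membranes were phosphorimaged and quantified by densitometry to measure phosphorylation of biotinylated degenerate peptide sub-libraries by purified recombinant kinases, human or orthologue constructs. The reactions ran in 384-well plates for 90 min under kinase-specific conditions, with peptides at 50 μM and 50 μM ATP spiked with γ-32P-ATP. Relative sub-library phosphorylation is the ratio to the mean residue at that position.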

Chain of GSK3A, construct: Full length (P49840 whole entry, looked up): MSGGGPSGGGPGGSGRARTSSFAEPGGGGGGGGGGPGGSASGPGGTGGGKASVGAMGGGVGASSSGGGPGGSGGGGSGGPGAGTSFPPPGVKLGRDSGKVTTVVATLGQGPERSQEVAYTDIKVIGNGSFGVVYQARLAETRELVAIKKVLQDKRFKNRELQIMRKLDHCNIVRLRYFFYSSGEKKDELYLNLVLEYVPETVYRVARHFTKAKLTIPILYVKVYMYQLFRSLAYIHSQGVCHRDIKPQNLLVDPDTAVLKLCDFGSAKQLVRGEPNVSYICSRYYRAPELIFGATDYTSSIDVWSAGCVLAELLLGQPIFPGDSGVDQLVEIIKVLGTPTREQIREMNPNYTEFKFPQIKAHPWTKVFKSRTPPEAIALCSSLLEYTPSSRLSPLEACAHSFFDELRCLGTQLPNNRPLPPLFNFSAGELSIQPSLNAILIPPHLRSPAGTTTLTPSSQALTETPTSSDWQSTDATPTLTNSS
Chain of MAPK15, construct: Full length (Q8TD08 whole entry, looked up): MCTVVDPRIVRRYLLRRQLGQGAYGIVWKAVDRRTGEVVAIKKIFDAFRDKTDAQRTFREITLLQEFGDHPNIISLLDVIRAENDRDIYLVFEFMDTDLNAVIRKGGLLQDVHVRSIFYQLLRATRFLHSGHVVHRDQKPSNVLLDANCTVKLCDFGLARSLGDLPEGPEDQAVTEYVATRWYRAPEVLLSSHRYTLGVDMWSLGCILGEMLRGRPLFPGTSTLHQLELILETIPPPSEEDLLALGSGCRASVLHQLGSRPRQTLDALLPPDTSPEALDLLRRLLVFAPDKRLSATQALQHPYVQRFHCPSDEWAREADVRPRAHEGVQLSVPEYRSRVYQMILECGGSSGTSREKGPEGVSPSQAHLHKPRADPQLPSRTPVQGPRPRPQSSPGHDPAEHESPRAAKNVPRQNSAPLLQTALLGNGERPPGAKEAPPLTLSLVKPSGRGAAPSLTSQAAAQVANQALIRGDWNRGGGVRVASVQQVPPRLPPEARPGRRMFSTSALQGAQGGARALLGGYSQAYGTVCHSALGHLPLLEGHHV
Chain of ACVR2A, construct: aa162-end (P27037 162-513, looked up): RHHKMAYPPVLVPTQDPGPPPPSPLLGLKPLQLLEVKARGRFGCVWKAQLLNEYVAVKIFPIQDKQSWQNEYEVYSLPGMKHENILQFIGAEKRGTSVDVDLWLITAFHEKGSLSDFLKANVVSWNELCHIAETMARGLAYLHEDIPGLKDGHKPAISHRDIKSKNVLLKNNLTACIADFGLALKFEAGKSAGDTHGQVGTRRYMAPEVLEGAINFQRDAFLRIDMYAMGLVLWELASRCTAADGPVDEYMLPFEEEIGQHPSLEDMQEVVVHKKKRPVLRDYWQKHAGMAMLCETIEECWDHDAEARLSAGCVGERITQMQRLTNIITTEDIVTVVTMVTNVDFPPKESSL
Chain of DAPK1, construct: aa1-363 (P53355 1-363, looked up): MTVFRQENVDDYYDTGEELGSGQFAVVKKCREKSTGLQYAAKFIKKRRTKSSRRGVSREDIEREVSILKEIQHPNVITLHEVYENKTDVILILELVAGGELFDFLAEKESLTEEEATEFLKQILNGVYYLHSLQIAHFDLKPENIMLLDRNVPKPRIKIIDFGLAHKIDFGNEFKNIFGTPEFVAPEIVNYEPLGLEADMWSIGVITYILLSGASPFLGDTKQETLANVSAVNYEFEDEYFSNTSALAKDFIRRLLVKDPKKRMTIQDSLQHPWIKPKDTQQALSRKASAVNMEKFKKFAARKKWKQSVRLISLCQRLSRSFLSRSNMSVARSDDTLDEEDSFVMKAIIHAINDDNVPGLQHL

ACVR2A, construct: aa162-end (from UniProt P27037)
relative phosphorylation
Settings | at +1 | at +2 | at +3 | at +4 | at -1 | at -2 | at -3 | at -4 | at -5
A fixed | 0.647 | 1.12 | 0.899 | 0.847 | 0.822 | 0.53 | 0.912 | 0.943 | 0.992
D fixed | 1.68 | 1.24 | 1.06 | 1.09 | 1.23 | 4.3 | 1.79 | 1.77 | 1.51
E fixed | 3.21 | 1.03 | 1.48 | 1.09 | 1.29 | 5.23 | 2.05 | 1.48 | 1.34
F fixed | 0.932 | 0.983 | 1.09 | 0.89 | 1.17 | 0.504 | 0.877 | 1.05 | 1.02
G fixed | 0.575 | 1.36 | 1.01 | 0.924 | 0.57 | 0.5 | 1.11 | 0.933 | 0.818
H fixed | 0.7 | 1.12 | 1 | 0.974 | 1.07 | 0.487 | 0.9 | 0.937 | 0.969
I fixed | 1.18 | 0.915 | 0.942 | 0.957 | 0.804 | 0.454 | 0.855 | 0.895 | 1.06
K fixed | 0.327 | 0.805 | 0.785 | 0.896 | 0.532 | 0.354 | 0.603 | 0.69 | 0.868
L fixed | 0.873 | 0.674 | 1.04 | 0.87 | 1.27 | 0.431 | 0.814 | 0.884 | 1.01
M fixed | 0.996 | 0.879 | 1 | 1.13 | 1.44 | 0.399 | 0.875 | 0.98 | 0.886
N fixed | 0.638 | 0.863 | 0.891 | 0.946 | 0.816 | 0.676 | 0.854 | 0.852 | 0.911
P fixed | 0.34 | 0.989 | 1.14 | 1.29 | 0.676 | 0.321 | 0.854 | 0.791 | 0.706
Q fixed | 1.23 | 1 | 0.848 | 1.05 | 0.9 | 0.769 | 0.863 | 0.82 | 0.732
R fixed | 0.416 | 0.935 | 0.658 | 0.835 | 0.577 | 0.504 | 0.783 | 0.777 | 0.808
V fixed | 1.32 | 0.999 | 0.963 | 0.877 | 1.1 | 0.502 | 0.928 | 0.924 | 1.02
W fixed | 0.961 | 0.983 | 1.08 | 1.36 | 1.39 | 0.54 | 1 | 1.28 | 1.37
Y fixed | 0.971 | 1.11 | 1.11 | 0.985 | 1.33 | 0.498 | 0.935 | 0.996 | 0.982
pThr fixed | 4.65 | 1.1 | 0.882 | 1.2 | 1.37 | 1.01 | 2.05 | 1.37 | 1.33
pTyr fixed | 2.81 | 0.877 | 1.39 | 1 | 1.81 | 0.721 | 1.66 | 1.16 | 1.29

GSK3A, construct: Full length (from UniProt P49840)
relative phosphorylation
Settings | at +1 | at +2 | at +3 | at +4 | at -1 | at -2 | at -3 | at -4 | at -5
A fixed | 0.877 | 0.899 | 0.742 | 0.852 | 1.1 | 1.42 | 1.14 | 1.28 | 1.14
D fixed | 0.815 | 1.25 | 1.32 | 1.25 | 1.15 | 1.14 | 1.36 | 1.39 | 1.36
E fixed | 0.758 | 0.904 | 2.08 | 3.03 | 1.09 | 0.906 | 1.26 | 1.4 | 1.05
F fixed | 0.673 | 0.931 | 0.889 | 0.752 | 0.598 | 0.686 | 0.525 | 0.686 | 0.903
G fixed | 1.19 | 0.957 | 1.02 | 0.825 | 1.47 | 1.38 | 2.61 | 1.43 | 0.995
H fixed | 0.771 | 1.04 | 0.935 | 0.772 | 0.927 | 0.741 | 0.668 | 0.915 | 0.983
I fixed | 0.564 | 0.621 | 0.679 | 0.788 | 0.506 | 0.719 | 0.507 | 0.661 | 0.727
K fixed | 1.18 | 1.33 | 0.933 | 1.14 | 1.3 | 1.02 | 0.824 | 1.06 | 1.16
L fixed | 0.552 | 0.772 | 0.803 | 0.862 | 0.61 | 0.638 | 0.536 | 0.715 | 0.811
M fixed | 0.607 | 0.883 | 0.812 | 0.864 | 0.691 | 0.662 | 0.604 | 0.747 | 0.739
N fixed | 1.05 | 1.38 | 1 | 0.922 | 1.28 | 1.25 | 1.21 | 1.13 | 0.974
P fixed | 3.8 | 0.825 | 0.899 | 0.728 | 1.5 | 2.02 | 1.65 | 1.42 | 1.31
Q fixed | 0.858 | 1.35 | 1.2 | 1.03 | 1.35 | 1 | 1.09 | 0.894 | 0.887
R fixed | 1.15 | 1.03 | 1.01 | 0.82 | 1.31 | 1.26 | 1.21 | 0.951 | 1.01
V fixed | 0.634 | 0.703 | 0.718 | 0.695 | 0.616 | 0.777 | 0.605 | 0.721 | 0.963
W fixed | 0.793 | 1.15 | 1.07 | 0.766 | 0.724 | 0.728 | 0.592 | 0.828 | 1.1
Y fixed | 0.725 | 0.979 | 0.873 | 0.908 | 0.77 | 0.653 | 0.614 | 0.772 | 0.882
pThr fixed | 0.876 | 0.928 | 3.67 | 62.8 | 0.866 | 1.11 | 1.06 | 1.82 | 1.07
pTyr fixed | 1.15 | 1.09 | 2.41 | 3.12 | 1.52 | 1.34 | 1.37 | 1.45 | 1.69

MAPK15, construct: Full length (from UniProt Q8TD08)
relative phosphorylation
Settings | at +1 | at +2 | at +3 | at +4 | at -1 | at -2 | at -3 | at -4 | at -5
A fixed | 1.98 | 0.19 | 1.12 | 1.12 | 0.933 | 1.36 | 1.3 | 1.04 | 1.08
D fixed | 0.214 | 0.135 | 0.665 | 0.726 | 0.643 | 0.632 | 0.992 | 0.893 | 0.987
E fixed | 0.31 | 0.115 | 0.655 | 0.643 | 0.517 | 0.59 | 0.941 | 1.01 | 0.859
F fixed | 1.22 | 0.19 | 0.874 | 0.928 | 1.08 | 0.688 | 0.88 | 0.875 | 1.06
G fixed | 1.05 | 0.226 | 1.2 | 1.11 | 0.767 | 0.947 | 1.5 | 1.18 | 1.09
H fixed | 1.41 | 0.573 | 0.984 | 0.976 | 1.06 | 0.738 | 1.04 | 1.09 | 1.07
I fixed | 0.221 | 0.173 | 0.598 | 0.864 | 0.897 | 1.17 | 0.869 | 0.869 | 0.831
K fixed | 0.432 | 0.992 | 1.61 | 1.41 | 1.11 | 0.651 | 0.9 | 0.997 | 1.26
L fixed | 0.27 | 0.189 | 0.85 | 0.95 | 1.55 | 1.53 | 0.985 | 0.959 | 0.754
M fixed | 0.369 | 0.17 | 0.799 | 0.964 | 1.28 | 1.31 | 0.972 | 0.951 | 0.815
N fixed | 0.436 | 0.247 | 0.863 | 0.853 | 0.789 | 0.944 | 0.965 | 1.04 | 0.89
P fixed | 4.86 | 0.192 | 1.05 | 1.11 | 0.93 | 2.07 | 1.1 | 1.06 | 1.19
Q fixed | 0.578 | 0.498 | 0.897 | 1.02 | 0.888 | 1.01 | 1.02 | 1.03 | 1.04
R fixed | 1.04 | 12.5 | 2.31 | 1.46 | 1.23 | 0.817 | 0.928 | 1.1 | 1.24
V fixed | 0.421 | 0.184 | 0.792 | 0.841 | 0.933 | 1.13 | 0.864 | 0.941 | 0.914
W fixed | 0.758 | 0.232 | 0.825 | 1.17 | 1.06 | 0.719 | 0.88 | 1.02 | 0.864
Y fixed | 1.44 | 0.225 | 0.903 | 0.866 | 1.34 | 0.69 | 0.872 | 0.956 | 1.07
pThr fixed | 0.325 | 0.205 | 0.653 | 0.578 | 0.415 | 0.772 | 0.936 | 0.887 | 0.904
pTyr fixed | 0.601 | 0.177 | 0.592 | 0.512 | 0.486 | 0.681 | 0.862 | 0.905 | 1.01

DAPK1, construct: aa1-363 (from UniProt P53355)
relative phosphorylation
Settings | at +1 | at +2 | at +3 | at +4 | at -1 | at -2 | at -3 | at -4 | at -5
A fixed | 0.752 | 0.793 | 0.813 | 0.817 | 0.743 | 1.27 | 0.626 | 0.975 | 0.91
D fixed | 1.81 | 0.767 | 0.98 | 0.853 | 0.83 | 0.333 | 0.336 | 0.665 | 0.58
E fixed | 1.76 | 0.953 | 0.979 | 0.857 | 0.63 | 0.347 | 0.374 | 0.82 | 0.622
F fixed | 0.867 | 0.998 | 0.999 | 1.13 | 0.771 | 0.4 | 0.45 | 0.844 | 0.773
G fixed | 1.06 | 0.651 | 0.978 | 0.935 | 0.847 | 0.662 | 0.62 | 0.937 | 1.03
H fixed | 0.714 | 0.936 | 1 | 1.45 | 1.24 | 0.987 | 0.754 | 1 | 1.05
I fixed | 0.877 | 1.05 | 1.95 | 0.913 | 0.701 | 0.308 | 0.418 | 0.871 | 0.955
K fixed | 0.476 | 0.717 | 0.665 | 0.72 | 1.35 | 1.38 | 2.1 | 1.63 | 1.67
L fixed | 0.792 | 1.92 | 1.39 | 0.777 | 1.18 | 0.354 | 0.385 | 0.796 | 1.02
M fixed | 1.12 | 1.71 | 1.04 | 1.01 | 1.14 | 0.387 | 0.421 | 0.959 | 0.954
N fixed | 1.47 | 0.871 | 0.818 | 0.985 | 1.4 | 0.672 | 0.483 | 0.93 | 0.842
P fixed | 0.353 | 0.724 | 0.693 | 0.994 | 1.04 | 0.338 | 0.558 | 0.677 | 0.756
Q fixed | 2.1 | 1.03 | 0.767 | 0.816 | 1.06 | 0.742 | 0.632 | 1.03 | 0.828
R fixed | 0.659 | 1.06 | 0.832 | 0.912 | 1.64 | 7.29 | 7.46 | 2.31 | 2.36
V fixed | 0.821 | 0.912 | 1.3 | 0.792 | 0.691 | 0.345 | 0.297 | 0.77 | 0.722
W fixed | 0.698 | 0.827 | 0.856 | 1.7 | 0.695 | 0.732 | 0.592 | 0.856 | 0.73
Y fixed | 0.68 | 1.08 | 0.936 | 1.33 | 1.05 | 0.46 | 0.502 | 0.928 | 1.2
pThr fixed | 3.07 | 1.42 | 1.26 | 1.87 | 0.889 | 0.618 | 0.741 | 0.996 | 1.17
pTyr fixed | 1.87 | 1.41 | 2.43 | 1.56 | 1.33 | 0.71 | 0.721 | 0.94 | 1.15

Source: the supplement of paper PMC9876800
